# Measured values taken from article PMC4529816 (Molecular cancer therapeutics, 2015).
# T1: GAL4^DBD-SIN3B (UniProt O75182 1-1162)
# T1 sequence (looked up): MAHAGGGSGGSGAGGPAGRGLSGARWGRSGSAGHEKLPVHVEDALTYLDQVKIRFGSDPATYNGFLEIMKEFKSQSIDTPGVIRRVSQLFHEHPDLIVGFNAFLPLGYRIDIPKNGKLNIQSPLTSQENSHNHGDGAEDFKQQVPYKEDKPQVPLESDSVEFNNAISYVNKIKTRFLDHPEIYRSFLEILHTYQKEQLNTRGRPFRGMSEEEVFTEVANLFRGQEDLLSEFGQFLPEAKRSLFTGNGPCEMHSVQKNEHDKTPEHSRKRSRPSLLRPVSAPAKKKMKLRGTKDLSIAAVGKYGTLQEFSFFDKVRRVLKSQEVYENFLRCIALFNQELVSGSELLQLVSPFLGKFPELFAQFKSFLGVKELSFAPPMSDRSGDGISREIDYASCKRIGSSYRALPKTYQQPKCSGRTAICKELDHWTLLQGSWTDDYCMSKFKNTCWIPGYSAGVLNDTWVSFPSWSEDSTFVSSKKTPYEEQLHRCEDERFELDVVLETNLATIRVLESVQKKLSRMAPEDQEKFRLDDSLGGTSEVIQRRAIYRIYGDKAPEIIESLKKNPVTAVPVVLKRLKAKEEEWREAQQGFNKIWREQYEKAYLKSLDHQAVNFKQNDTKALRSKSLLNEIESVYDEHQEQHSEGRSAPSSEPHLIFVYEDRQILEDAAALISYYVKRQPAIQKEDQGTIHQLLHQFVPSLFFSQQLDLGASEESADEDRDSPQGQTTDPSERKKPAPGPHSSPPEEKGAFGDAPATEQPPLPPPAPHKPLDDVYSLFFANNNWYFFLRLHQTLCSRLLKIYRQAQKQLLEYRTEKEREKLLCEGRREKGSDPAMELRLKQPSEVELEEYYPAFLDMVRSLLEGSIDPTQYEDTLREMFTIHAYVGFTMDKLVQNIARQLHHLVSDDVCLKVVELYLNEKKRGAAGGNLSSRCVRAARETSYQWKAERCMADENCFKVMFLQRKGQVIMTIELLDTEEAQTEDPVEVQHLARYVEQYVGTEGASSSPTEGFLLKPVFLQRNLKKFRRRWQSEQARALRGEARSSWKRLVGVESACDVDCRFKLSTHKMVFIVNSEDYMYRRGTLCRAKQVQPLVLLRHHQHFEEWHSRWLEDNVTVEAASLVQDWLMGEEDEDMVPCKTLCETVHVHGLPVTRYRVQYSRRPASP
# Molecular target: T1, GAL4^DBD-SIN3B
# Experiment: two-hybrid
binder,measurement,value
"VP16^AD-MAD (natural protein, UniProt Q05195 1-221, looked up) MAAAVRMNIQMLLEAADYLERREREAEHGYASMLPYNNKDRDALKRRNKSKKNNSSSRSTHNEMEKNRRAHLRLCLEKLKGLVPLGPESSRHTTLSLLTKAKLHIKKLEDCDRKAVHQIDQLQREQRHLKRQLEKLGIERIRMDSIGSTVSSERSDSDREEIDVDVESTDYLTGDLDWSSSSVSDSDERGSMQSLGSDEGYSSTSIKRIKLQDSHKACLGL",fold decrease in luciferase activity against the empty vectors,3.7 fold
